Results taken from publication PMC3576407, “N332-Directed Broadly Neutralizing Antibodies Use Diverse Modes of HIV-1 Recognition: Inferences from Heavy-Light Chain Complementation of Function” (PLoS ONE, 2013).

B1: PGT128 (wild-type IgG, PGT128 heavy chain with PGT128 light chain) (antibody, V domains shown)
VH: QPQLQESGPTLVEASETLSLTCAVSGDSTAACNSFWGWVRQPPGKGLEWVGSLSHCASYWNRGWTYHNPSLKSRLTLALDTPKNLVFLKLNSVTAADTATYYCARFGGEVLRYTDWPKPAWVDLWGRGTLVTVSS
VL: QSALTQPPSASGSPGQSITISCTGTSNNFVSWYQQHAGKAPKLVIYDVNKRPSGVPDRFSGSKSGNTASLTVSGLQTDDEAVYYCGSLVGNWDVIFGGGTKLTVL
notes: PGT128 heavy chain; PGT128 light chain; also called PGT128-H/PGT128-L; source: HEK 293T cells (methods; the results say 293F), transient transfection in 96-well microplates, supernatant used directly
B2: PGT121 (wild-type IgG, PGT121 heavy chain with PGT121 light chain) (antibody, V domains shown)
VH: QMQLQESGPGLVKPSETLSLTCSVSGASISDSYWSWIRRSPGKGLEWIGYVHKSGDTNYSPSLKSRVNLSLDTSKNQVSLSLVAATAADSGKYYCARTLHGRRIYGIVAFNEWFTYFYMDVWGNGTQVTVSS
VL: DISVAPGETARISCGEKSLGSRAVQWYQHRAGQAPSLIIYNNQDRPSGIPERFSGSPDSPFGTTATLTITSVEAGDEADYYCHIWDSRVPTKWVFGGGTTLTVL
notes: PGT121 heavy chain; PGT121 light chain; also called PGT121-H/PGT121-L; source: HEK 293T cells (methods; the results say 293F), transient transfection in 96-well microplates, supernatant used directly

Legend:
Experiment in all cases: ELISA; 200 ng gp120 coated on Maxisorb 96-well plates in PBS overnight at 4°C; blocked with PBS 5% dry milk; 25–50 µl antibody supernatant 1 h at RT; HRP goat anti-human IgG (H+L); TMB, OD450; absorbance normalised by the expression titer
Conditions in all cases: one partner purified
[1] = target: T1, HIV-1 YU2 gp120 monomeric protein (HIV-1 clade B, primary isolate YU2, UniProt P35961)
T1 construct: gp120 envelope glycoprotein (the gp120 product of Env gp160) of HIV-1 primary isolate YU2, full-length gp120, monomeric

[2] = target: T2, HIV-1 CAAN gp120 monomeric protein (HIV-1 subtype B, isolate CAAN …, UniProt Q5G5U4, strain)
T2 construct: gp120 envelope glycoprotein (the gp120 product of Env gp160) of HIV-1 primary isolate CAAN, full-length gp120, monomeric

[3] = target: T3, HIV-1 BaL gp120 monomeric protein (HIV-1 subtype B, isolate BaL (clone not …, UniProt Q2MKA8, strain))
T3 construct: gp120 envelope glycoprotein (the gp120 product of Env gp160) of HIV-1 primary isolate BaL, full-length gp120, monomeric

Row | Binder | binding result [1] | binding result [2] | binding result [3]
1 | B1 | binds | binds | 
2 | B2 |  | binds | binds
